Measurements from PMC3719477 (ACS Chemical Biology, 2013).

Biological target: KIX domain (residues 586–672) of human CREB binding protein (CBP) (human, UniProt Q92793 586-672)
Experiment: NMR solution structure

KIX domain (residues 586–672) of human CREB binding protein (CBP), sequence (Q92793 586-672): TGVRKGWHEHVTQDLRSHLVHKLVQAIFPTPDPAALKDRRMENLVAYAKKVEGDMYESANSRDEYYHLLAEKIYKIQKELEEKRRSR

B1: activation domain of mixed-lineage leukemia (MLL), residues 2840–2858, with C2841 substituted with alanine (peptide, UniProt Q03164 2840-2858, looked up)
chain: DAGNILPSDIMDFVLKNTP
B1: binds.
